Test results: the supplement of paper PMC9732359
± gives the uncertainty stated by the source.

Experiment: protein stability index of a GFP-peptide fusion (yeast GPS) (PSI 1-4); higher = more stable; sorted into four equal gates, so the index is relative within each strain
Method in brief: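 Sequencing reads from sorted gates were used to score each peptide. The library consisted of tiled 17-residue yeast protein peptides fused downstream of GFP on a Cherry-expressing plasmid, pooled and carried in yeast. Mid-log cultures in leucine-free medium were split into four equal gates by GFP/Cherry ratio, and each gate's plasmids were PCR-amplified and Illumina-sequenced. The protein stability index adds up, over all gates, the read frequency multiplied by the gate number.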

Sequence	protein stability index (doa10∆)	protein stability index (pdr5∆)	protein stability index (san1∆)	protein stability index (ubr1∆)
IKGIREYEEWQKSVSLL [YDL116W/NUP84]	2.08 ± 0.14	2.66 ± 0.12	2.5 ± 0.17	2.55 ± 0.095
LSIKNSFIINFISNLPN [NUT1]	1.92 ± 0.07	1.81 ± 0.05	1.87 ± 0.1	1.79 ± 0.04
ISYLQEVQCTSTPYLEI [PCI8]	2.68 ± 0.16		1.7 ± 0.2	1.81 ± 0.22
DGHLQFLNDVIPTTKNL [DLS1]	2.96 ± 0.094	3.05 ± 0.068	2.8 ± 0.072	3.04 ± 0.073
ITNKHQEGLAKFGACVA [RPN2]	1.78 ± 0.054	1.97 ± 0.038	2.54 ± 0.092	2.51 ± 0.035
IEIKISDPLTVFSESCS [SNU114]	2.33 ± 0.071	2.55 ± 0.073	2.42 ± 0.052	2.45 ± 0.06
ILVPDLYHLVIMKFQSL [ECM29]	1.28 ± 0.081	1.3 ± 0.086	1.12 ± 0.15	1.38 ± 0.063
RKKKFVLDVDPKYAKQK [ISW2]	2.91 ± 0.077	2.45 ± 0.066	2.25 ± 0.12	2.66 ± 0.076
VKEEKEDMETQASDPSK [RPC53]	3.27 ± 0.14	3.41 ± 0.2	3.2 ± 0.17	3.31 ± 0.15
ASAPLCSPKLPVEKVQR [DLS1]	2.78 ± 0.068	3.07 ± 0.067	2.92 ± 0.053	3.03 ± 0.049
VPDSKIRIYDLGKKKAT [RPL10]	1.24 ± 0.076	1.35 ± 0.071	1.15 ± 0.13	1.05 ± 0.056
QNAKLLANLIRDALRNI [RRP6]	2.17 ± 0.055	2.18 ± 0.062	2.36 ± 0.084	2.23 ± 0.043
LPKLKATGHRVLIFFQM [SNF2]	1.69 ± 0.13	1.52 ± 0.083	2.09 ± 0.12	2.09 ± 0.14
LKTVIILSSLYLLSIWV [CYT1]	2.12 ± 0.11	1.45 ± 0.092	1.24 ± 0.15	1.17 ± 0.056
QKRLEAGALNLASPEVK [DIS3]		2.64 ± 0.18		2.82 ± 0.081
ELLRLANEQLKLFNRIV [CSN12]	2.3 ± 0.069	2.55 ± 0.082	1.64 ± 0.085	1.92 ± 0.07
LEDLKNTKEIAVDLEHH [RRP6]	2.66 ± 0.061	2.54 ± 0.047	2.48 ± 0.056	2.7 ± 0.038
ADTGRDDTKETVYISSI [RPN11]	3.12 ± 0.09	3.28 ± 0.1	3.01 ± 0.073	3.16 ± 0.053
LTNMMSPMGNAYSMGAQ [PGD1]	2.34 ± 0.062	2.64 ± 0.077	2.49 ± 0.084	2.68 ± 0.044
IPSIPNPIANHTVTNSP [SNF5]	2.46 ± 0.039	2.68 ± 0.036	2.45 ± 0.041	2.6 ± 0.027
SNPSGNYTGWKAISVGA [PRE9]	1.89 ± 0.073	2.5 ± 0.061	2.54 ± 0.086	2.22 ± 0.048
GGESDSALILMYKGFGL [UBP6]	3.37 ± 0.07	3.41 ± 0.076	3.15 ± 0.085	3.29 ± 0.055
TQARVITGNKIMRILKS [RPS13]	1.41 ± 0.17	1.24 ± 0.081	1.18 ± 0.12	1.1 ± 0.079
FKSVLPIVLLNTLRKCY [UBP6]	1.26 ± 0.11	1.23 ± 0.071	1.12 ± 0.16	1.18 ± 0.12
NLHAEGWPKLQLGPQTP [ECM29]	2.43 ± 0.18	2.74 ± 0.18		2.9 ± 0.24
FVFTNEPLTEIKNVIVS [RPP0]	1.84 ± 0.057	2.68 ± 0.089	3.12 ± 0.076	2.73 ± 0.077
LHQRTHKQVYPLRMETI [DSN1]	2.28 ± 0.06	2.66 ± 0.042	2.44 ± 0.048	2.6 ± 0.039
FPVSLSQPSKKSFANHT [SIR4]	2.82 ± 0.051	2.87 ± 0.046	3.01 ± 0.054	3 ± 0.039

Sequence	protein stability index (doa10∆)	protein stability index (pdr5∆)	protein stability index (san1∆)	protein stability index (ubr1∆)
ALILADSEIEISSEKLL [RPP1A]	1.95 ± 0.13	1.87 ± 0.11	1.94 ± 0.096	2.06 ± 0.081
RGLTPQEFFFHAMGGRE [RPO21]	2.32 ± 0.05	2.42 ± 0.054	2.2 ± 0.074	2.35 ± 0.046
GGDSDANGTFMDFGVDP [RPN10]			3.23 ± 0.13	2.96 ± 0.25
TQSYNNQNTLKEISARR [POP1]	2.29 ± 0.041	2.48 ± 0.035	2.24 ± 0.063	2.78 ± 0.037
KVAKRTKIKPFIKVVNY [RPL27A]	2.9 ± 0.09	2.8 ± 0.096	2.86 ± 0.06	2.64 ± 0.076
DVQLERVADEDANLNDL [IRR1]	2.89 ± 0.17			
TTKERKKSRLGNSFHLM [PRP8]	2.7 ± 0.066	2.83 ± 0.065	2.57 ± 0.062	2.48 ± 0.054
VTKILPHLIIQNHNSKS [IRR1]	1.41 ± 0.11	1.19 ± 0.072	1.16 ± 0.13	1.15 ± 0.073
NENFRLVYDVKGRFAVH [RPS4A]	3.41 ± 0.14	2.55 ± 0.17	3.32 ± 0.12	3.25 ± 0.13
NTHNKSTKRVTKHPSLK [POP7]	2.6 ± 0.07	2.78 ± 0.062	2.67 ± 0.044	2.72 ± 0.046
PTPAIIKPKPLWSGKQI [RPO21]	2 ± 0.11	2.5 ± 0.093	2.48 ± 0.08	2.54 ± 0.098
NSSTSPAPSIPSTGFKF [YLR335W/NUP2]	2.38 ± 0.04	2.5 ± 0.036	2.48 ± 0.043	2.21 ± 0.028
NMVRNNNNNTIDESMPD [GRR1]	2.83 ± 0.057	3.12 ± 0.061	3.02 ± 0.074	3.12 ± 0.052
SKALLREISNFSKGDAD [SRP72]	3.06 ± 0.26	3.41 ± 0.21		3.77 ± 0.2
EASSLGYLDDSEILIIS [IRR1]	2.1 ± 0.048	1.85 ± 0.037	1.91 ± 0.1	1.87 ± 0.036
VKNLSLMSCISVGTDPM [RPB2]	1.88 ± 0.067	1.67 ± 0.061	2.48 ± 0.058	2.43 ± 0.063
SQSLGVSNKFEKIFHYG [PUP3]	3.47 ± 0.13	3.5 ± 0.17	2.95 ± 0.13	3.61 ± 0.14
EQQLFEIFAFGNIKDLP [CSN9]	2.88 ± 0.076	2.97 ± 0.06	2.96 ± 0.035	2.86 ± 0.035
IYINKSVPTNSADAPNP [RET1]	3.19 ± 0.08	3.2 ± 0.061	3.31 ± 0.049	3.29 ± 0.052
APVEVQEDFEVVEEFTP [RPS5]	3.31 ± 0.076	3.21 ± 0.08	3.02 ± 0.049	2.94 ± 0.062
RAKAMKFADGFLIHSGQ [RPS3]	3.4 ± 0.11	3.03 ± 0.093	3.13 ± 0.061	3.22 ± 0.037
PDPNFENSIGYNNRKCW [PRP8]	3.02 ± 0.098	2.97 ± 0.1	2.98 ± 0.21	3.11 ± 0.12
NEKMQLLKDIFANNLKS [SIR4]	2.28 ± 0.048	2.41 ± 0.051	1.95 ± 0.083	2.19 ± 0.048
SKLLVPQKNVKIQVVDR [PRE10]	3.02 ± 0.074	2.84 ± 0.049	2.53 ± 0.099	2.72 ± 0.052
SRMFEEVSGSIQYKKEY [SMC1]	3.09 ± 0.057	2.02 ± 0.06	2.37 ± 0.075	3.21 ± 0.057
SSYDLLFNESFIMASVG [SRP72]	3.18 ± 0.12	2.88 ± 0.15	2.76 ± 0.1	3.16 ± 0.059
FVCRGMAATQTIEQSPR [ECM29]	1.7 ± 0.063	1.93 ± 0.062	1.58 ± 0.23	1.56 ± 0.054
